# Measurements published in paper doi:10.1101/2025.09.18.677151.
# T1: E. coli TatC (subunit of the overexpressed TatBC complex) (E. coli), P69423
# T1 chain: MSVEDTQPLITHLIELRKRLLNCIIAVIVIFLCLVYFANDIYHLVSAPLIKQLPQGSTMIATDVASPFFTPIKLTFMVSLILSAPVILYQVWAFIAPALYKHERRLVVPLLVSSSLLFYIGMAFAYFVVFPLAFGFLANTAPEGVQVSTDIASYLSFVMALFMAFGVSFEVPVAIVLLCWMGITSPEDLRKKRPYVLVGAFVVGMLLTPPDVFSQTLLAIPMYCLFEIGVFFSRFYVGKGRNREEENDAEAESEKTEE
# B1: E. coli TatC (subunit of the overexpressed TatBC complex), P69423 1-258 (natural protein)
# chain: T1 chain
# Target: T1, E. coli TatC (subunit of the …)
# Test: cryo-EM structure
# Conditions: remark: other sources report otherwise
binder,measurement,value
B1,stoichiometry N,3
